{"source": "the Immune Epitope Database (IEDB)", "settings_in_all_cases": "source organism: Giardia lamblia ATCC 50803", "key": {"HLA-B*40:01": {"target": "HLA-B*40:01", "test": "IEDB peptide-MHC binding, purified MHC/direct/fluorescence; filed as Kd, often an IC50 or EC50 that approximates it; ≥ and ≤ were set here for values at or beyond the usual limits of such assays"}, "HLA-A*31:01": {"target": "HLA-A*31:01", "test": "IEDB peptide-MHC binding, purified MHC/direct/fluorescence; filed as Kd, often an IC50 or EC50 that approximates it; ≥ and ≤ were set here for values at or beyond the usual limits of such assays"}, "HLA-B*44:02": {"target": "HLA-B*44:02", "test": "IEDB peptide-MHC binding, purified MHC/direct/fluorescence; filed as Kd, often an IC50 or EC50 that approximates it; ≥ and ≤ were set here for values at or beyond the usual limits of such assays"}, "HLA-A*11:01": {"target": "HLA-A*11:01", "test": "IEDB peptide-MHC binding, purified MHC/direct/fluorescence; filed as Kd, often an IC50 or EC50 that approximates it; ≥ and ≤ were set here for values at or beyond the usual limits of such assays"}, "HLA-A*02:12": {"target": "HLA-A*02:12", "test": "IEDB peptide-MHC binding, purified MHC/direct/fluorescence; filed as Kd, often an IC50 or EC50 that approximates it; ≥ and ≤ were set here for values at or beyond the usual limits of such assays"}, "HLA-A*03:01": {"target": "HLA-A*03:01", "test": "IEDB peptide-MHC binding, purified MHC/direct/fluorescence; filed as Kd, often an IC50 or EC50 that approximates it; ≥ and ≤ were set here for values at or beyond the usual limits of such assays"}, "HLA-B*15:01": {"target": "HLA-B*15:01", "test": "IEDB peptide-MHC binding, purified MHC/direct/fluorescence; filed as Kd, often an IC50 or EC50 that approximates it; ≥ and ≤ were set here for values at or beyond the usual limits of such assays"}, "HLA-B*27:05": {"target": "HLA-B*27:05", "test": "IEDB peptide-MHC binding, purified MHC/direct/fluorescence; filed as Kd, often an IC50 or EC50 that approximates it; ≥ and ≤ were set here for values at or beyond the usual limits of such assays"}, "HLA-A*02:11": {"target": "HLA-A*02:11", "test": "IEDB peptide-MHC binding, purified MHC/direct/fluorescence; filed as Kd, often an IC50 or EC50 that approximates it; ≥ and ≤ were set here for values at or beyond the usual limits of such assays"}, "HLA-B*58:01": {"target": "HLA-B*58:01", "test": "IEDB peptide-MHC binding, purified MHC/direct/fluorescence; filed as Kd, often an IC50 or EC50 that approximates it; ≥ and ≤ were set here for values at or beyond the usual limits of such assays"}, "HLA-B*46:01": {"target": "HLA-B*46:01", "test": "IEDB peptide-MHC binding, purified MHC/direct/fluorescence; filed as Kd, often an IC50 or EC50 that approximates it; ≥ and ≤ were set here for values at or beyond the usual limits of such assays"}, "HLA-B*18:01": {"target": "HLA-B*18:01", "test": "IEDB peptide-MHC binding, purified MHC/direct/fluorescence; filed as Kd, often an IC50 or EC50 that approximates it; ≥ and ≤ were set here for values at or beyond the usual limits of such assays"}, "HLA-B*08:02": {"target": "HLA-B*08:02", "test": "IEDB peptide-MHC binding, purified MHC/direct/fluorescence; filed as Kd, often an IC50 or EC50 that approximates it; ≥ and ≤ were set here for values at or beyond the usual limits of such assays"}, "HLA-A*02:01": {"target": "HLA-A*02:01", "test": "IEDB peptide-MHC binding, purified MHC/direct/fluorescence; filed as Kd, often an IC50 or EC50 that approximates it; ≥ and ≤ were set here for values at or beyond the usual limits of such assays"}, "HLA-A*02:16": {"target": "HLA-A*02:16", "test": "IEDB peptide-MHC binding, purified MHC/direct/fluorescence; filed as Kd, often an IC50 or EC50 that approximates it; ≥ and ≤ were set here for values at or beyond the usual limits of such assays"}, "HLA-B*07:02": {"target": "HLA-B*07:02", "test": "IEDB peptide-MHC binding, purified MHC/direct/fluorescence; filed as Kd, often an IC50 or EC50 that approximates it; ≥ and ≤ were set here for values at or beyond the usual limits of such assays"}, "HLA-A*24:02": {"target": "HLA-A*24:02", "test": "IEDB peptide-MHC binding, purified MHC/direct/fluorescence; filed as Kd, often an IC50 or EC50 that approximates it; ≥ and ≤ were set here for values at or beyond the usual limits of such assays"}, "HLA-A*02:06": {"target": "HLA-A*02:06", "test": "IEDB peptide-MHC binding, purified MHC/direct/fluorescence; filed as Kd, often an IC50 or EC50 that approximates it; ≥ and ≤ were set here for values at or beyond the usual limits of such assays"}, "HLA-A*01:01": {"target": "HLA-A*01:01", "test": "IEDB peptide-MHC binding, purified MHC/direct/fluorescence; filed as Kd, often an IC50 or EC50 that approximates it; ≥ and ≤ were set here for values at or beyond the usual limits of such assays"}, "HLA-A*02:03": {"target": "HLA-A*02:03", "test": "IEDB peptide-MHC binding, purified MHC/competitive/fluorescence; filed as Kd, often an IC50 or EC50 that approximates it; ≥ and ≤ were set here for values at or beyond the usual limits of such assays"}}, "data": [{"sequence": "HCIDKTPGL", "values": [{"measurement": "Kd", "setting": "HLA-B*40:01", "result": "≥ 20", "unit": "µM"}, {"measurement": "Kd", "setting": "HLA-A*31:01", "result": "≥ 20", "unit": "µM"}, {"measurement": "Kd", "setting": "HLA-B*44:02", "result": "≥ 20", "unit": "µM"}, {"measurement": "Kd", "setting": "HLA-A*11:01", "result": "≥ 20", "unit": "µM"}, {"measurement": "Kd", "setting": "HLA-A*02:12", "result": 0.26, "unit": "µM"}, {"measurement": "Kd", "setting": "HLA-A*03:01", "result": "≥ 20", "unit": "µM"}, {"measurement": "Kd", "setting": "HLA-B*15:01", "result": "≥ 20", "unit": "µM"}, {"measurement": "Kd", "setting": "HLA-B*27:05", "result": "≥ 20", "unit": "µM"}, {"measurement": "Kd", "setting": "HLA-A*02:11", "result": 0.914, "unit": "µM"}, {"measurement": "Kd", "setting": "HLA-B*58:01", "result": "≥ 20", "unit": "µM"}, {"measurement": "Kd", "setting": "HLA-B*46:01", "result": "≥ 20", "unit": "µM"}, {"measurement": "Kd", "setting": "HLA-B*18:01", "result": "≥ 20", "unit": "µM"}, {"measurement": "Kd", "setting": "HLA-B*08:02", "result": "≥ 20", "unit": "µM"}, {"measurement": "Kd", "setting": "HLA-A*02:01", "result": 0.319, "unit": "µM"}, {"measurement": "Kd", "setting": "HLA-A*02:16", "result": 0.39, "unit": "µM"}, {"measurement": "Kd", "setting": "HLA-B*07:02", "result": "≥ 20", "unit": "µM"}, {"measurement": "Kd", "setting": "HLA-A*24:02", "result": "≥ 20", "unit": "µM"}, {"measurement": "Kd", "setting": "HLA-A*02:06", "result": 0.106, "unit": "µM"}, {"measurement": "Kd", "setting": "HLA-A*01:01", "result": "≥ 20", "unit": "µM"}, {"measurement": "Kd", "setting": "HLA-A*02:03", "result": 2.48, "unit": "µM"}]}]}
